Data published in US20220235103A1.

Biological target: SARS-CoV-2 spike protein variant B.1.1.7 (SARS-CoV-2), P0DTC2
Assay: cell-based or functional assay

| Binder | VSV Pseudotype Neutralization Assay IC50 [ng/mL] |
| --- | --- |
| ALE049 (designed binder) MRGSHHHHHHGSDLGKKLLEAARAGQDDEVRELLKAGADVNAKDYFSHTPLHLAARNGHLKIVEVLLKAGADVNAKDFAGKTPLHLAANEGHLEIVEVLLKAGADVNAQDIFGKTPADIAADAGHEDIAEVLQKAAGSPTPTPTTPTPTPTTPTPTPTGSDLGKKLLEAARAGQDDEVRELLKAGADVNAKDYFSHTPLHLAARNGHLKIVEVLLKAGADVNAKDFAGKTPLHLAANEGHLEIVEVLLKAGADVNAQDIFGKTPADIAADAGHEDIAEVLQKAAGSPTPTPTTPTPTPTTPTPTPTGSDLGKKLLQAARAGQLDEVRELLKAGADVNAKDREGITPLHLAAQHGHLEIVEVLLKAGADVNAKDVWGRTPLHLAAWQGHLEIVEVLLKAGADVNAKDLAGATPLHVAALYGHLEIVEVLLKAGADVNAQDKSGKTPADLAARAGHQDIAEVLQKAAGSPTPTPTTPTPTPTTPTPTPTGSDLGKKLLQAARAGQLDEVRELLKAGADVNAKDREGKTPLHVAAQEGHLEIVEVLLKAGADVNAKDVWGRTPLHLAAWIGHLEIVEVLLKAGADVNAKDVSGATPLHAAALHGHLEIVEVLLNAGADVNAQDKSGKTPADLAARAGHQDIAEVLQKAAGSPTPTPTTPTPTPTTPTPTPTGSDLGKKLLQAARAGQLDEVRELLKAGADVNAKDQEGITPLHVAAHQGHLEIVEVLLKAGADVNAKDVWGRTPLHLAAWRGHLEIVEVLLKAGADVNAKDHAGATPLHAAALSGHLEIVEVLLKAGADVNAQDKSGKTPADLAARAGHQDIAEVLQKAA | 1.7 |
| vS07_29B10 (designed binder) MRGSHHHHHHGSDLGKKLLQAARAGQLDEVRELLKAGADVNAKDREGITPLHLAAQHGHLEIVEVLLKAGADVNAKDVWGRTPLHLAAWQGHLEIVEVLLKAGADVNAKDLAGATPLHVAALYGHLEIVEVLLKAGADVNAQDKSGKTPADLAARAGHQDIAEVLQKAA | 4.6 |
| vS07_23E04 (designed binder) MRGSHHHHHHGSDLGKKLLQAARAGQLDEVRELLKAGADVNAKDQEGITPLHVAAHQGHLEIVEVLLKAGADVNAKDVWGRTPLHLAAWRGHLEIVEVLLKAGADVNAKDHAGATPLHAAALSGHLEIVEVLLKAGADVNAQDKSGKTPADLAARAGHQDIAEVLQKAA | 11.7 |
| vS07_12C06 (designed binder) MRGSHHHHHHGSDLGKKLLQAARAGQLDEVRELLKAGADVNAKDREGKTPLHVAAQEGHLEIVEVLLKAGADVNAKDVWGRTPLHLAAWIGHLEIVEVLLKAGADVNAKDVSGATPLHAAALHGHLEIVEVLLNAGADVNAQDKSGKTPADLAARAGHQDIAEVLQKAA | 5.4 |
